Laboratory results reported in patent US7939292B2, “Modified heparinase III and methods of sequencing therewith” (Massachusetts Institute of Technology, priority 2000, dated 2011).

How the values were obtained:
[1] = system: LLC cells; test: Lung metastasis of LLC cells injected through tail vein; format: in vivo, mice; settings: cells incubated with enzyme before tail vein injection
Experimental: To ensure that these observations were not limited to the tumor model chosen, hep III was used to treat mice bearing Lewis lung carcinoma (LLC) tumors. Growth curves of primary tumor growth for LLC tumor in C57BL/6 mice treated with either PBS or heparinase III were plotted. 4×10^5 log phase LLC cells were injected subcutaneously to the flank of mice on day 1. Daily injection of 0.1 ml of either PBS or 2 mg/ml recombinantly expressed heparinase III started at the day 4 and continued throughout the experiment. At day 8, osmotic pumps (100 μl capacity delivering at 0.5 μl per hour) containing PBS or 3 mg/ml hep III were implanted subcutaneously at a place remote from the tumor site. Mice were sacrificed at day 20. Lung metastasis of LLC cells injected through tail vein were quantitated as number of lung nodules. Log growth LLC cells were trypsinized for 30 seconds and resuspended in PBS to a final concentration of 1×10^6 per ml. For experimental group, cells were incubated with […] hep III for 30 minutes at 37° C. before injecting 0.2 ml of cell suspension via tail vein. Mice were euthanized 12 days after tail vein injections, lungs were harvested, rinsed in tap water and fixed overnight in Bouin's solution. The number of nodules on lung surface was counted with the aid of a dissection microscope.

[2] = system: B16BL6 melanoma cells; test: Lung metastasis of heparinase treated B16BL6 cells after tail vein injection; format: in vivo, mice; settings: cells treated 30 min at 37° C. before tail vein injection; 13 days
Experimental: We next investigated the ability of heparinase treated B16BL6 melanoma cells to metastasize to the lungs. B16BL6 cells in log growth phase were briefly trypsinized and resuspended in PBS to a final concentration of 1×10^6 per ml. Prior to injection, cells were treated with either PBS, hep I […] or hep III […] for 30 min. at 37° C. 0.2 ml cell suspensions (2×10^5 cells) were injected slowly via tail vein. Mice were sacrificed 13 days later and lungs were harvested, rinsed with tap water. The number of nodules on lung surface were counted with the assistance of a dissection microscope. * indicates p<0.05 (Mann-Whitney test).

[3] = system: B16BL6 cells; test: Growth in mice of B16BL6 cells after heparinase removal of the HLGAG coat; format: in vivo; settings: HLGAG coat removed
Source text: There are two possible mechanisms by which heparinase may be acting on tumor cells. For instance, heparinase III treatment of cells may result in cells losing their unique surface HLGAG coat and this directly or indirectly may impinge on their ability to grow or metastasize. On the other hand heparinase III treatment of cells may also result in the generation of distinct HLGAG fragments, and these fragments could then directly or indirectly modulate tumor cell function. It was thought that heparinase III may function though either one of these mechanisms or through some combination of these mechanisms. To investigate the mechanisms of action further, we treated B16BL6 cells with either heparinases I or III, to remove the HLGAG coat on the tumor cell surface.
In further support of this conclusion ex vivo digestion of the HLGAG coat present on tumor cells with either heparinase, followed by centrifugation and resuspension in PBS to remove the enzyme and HLGAG fragments released from the cell surface, prior to in vivo injection results in the cells being functionally identical to controls. Thus the released tumor cell HLGAG fragments appear to play the key role in modulating tumor growth and metastasis.

[4] = system: Erk-1, 2; test: Erk-1, 2 activation in FGF2 stimulated B16BL6 cells (immunoblot); format: cell-based; settings: enzyme 200 nM 30 min before 50 ng/ml FGF2
Experimental: a. Methods: B16BL6 cells in 10 cm culture dishes were serum starved for 48 hours before stimulation with 50 ng/ml FGF2. Cells were stimulated for 20 minutes before whole cell lysates were prepared with 1 ml modified RIPA buffer containing various enzyme inhibitors (50 mM Tris-HCl, pH 7.4, 1% NP-40, 0.25% Na-deoxycholate, 150 mM NaCl, 1 mM EDTA, 1 mM PMSF, 1 μg/ml aprotinin, leupeptin, and pepstatin, 1 mM activated Na3VO4, 1 mM NaF). Protein concentration in the lysate was determined using the Bio-Rad protein assay kit (BioRad) and adjusted accordingly for electrophoresis analysis. For the heparinase treated groups, cells were treated with either hep I or hep III (200 nM) for 30 min at 37° C. prior to addition of FGF2. The immunoblot was probed with anti-Erk-1, 2 or anti-phospho-Erk-1, 2 antibody (New England Biolabs; MA) and detected by anti-rabbit IgG conjugated to HRP using SuperSignal West Pico Chemiluminescent substrate (Pierce, Ill.).

[5] = system: FAK; test: Activation of FAK in B16BL6 tumor; design: species or system mice; settings: mouse, in vivo
Source text: d. Effect of heparinase treatment on activation of FAK in B16BL6 tumor. The FAK protein was immunoprecipitated with mouse anti-FAK monoclonal antibody (Transduction Laboratories, Lexington, Ky.) according to the procedures described above. The phosphorylated FAK was detected using phosphotyrosine specific antibody RC20.

[6] = system: Akt; test: Akt activation in B16BL6 tumor; design: species or system mice; settings: mouse, in vivo
Experimental: f. Effect of heparinase treatment on Akt activation. The primary tumor was treated and processed as described above. Akt antibody and phospho-Akt antibody from New England Biolabs were used to probe the immunoblot.

B1: heparinase III: HLGAG degrading enzyme from Flavobacterium heparinum (EC 4.2.2.8), SEQ ID NO:2; cleaves heparan sulfate (protein, listed as Pedobacter heparinus)
chain: MTTKIFKRIIVFAVIALSSGNILAQSSSITRKDFDHINLEYSGLEKVNKAVAAGNYDDAAKALLAYYREKSKAREPDFSNAEKPADIRQPIDKVTREMADKALVHQFQPHKGYGYFDYGKDINWQMWPVKDNEVRWQLHRVKWWQAMALVYHATGDEKYAREWVYQYSDWARKNPLGLSQDNDKFVWRPLEVSDRVQSLPPTFSLFVNSPAFTPAFLMEFLNSYHQQADYLSTHYAEQGNHRLFEAQRNLFAGVSFPEFKDSPRWRQTGISVLNTEIKKQVYADGMQFELSPIYHVAAIDIFLKAYGSAKRVNLEKEFPQSYVQTVENMIMALISISLPDYNTPMFGDSWITDKNFRMAQFASWARVFPANQAIKYFATDGKQGKAPNFLSKALSNAGFYTFRSGWDKNATVMVLKASPPGEFHAQPDNGTFELFIKGRNFTPDAGVFVYSGDEAIMKLRNWYRQTRIHSTLTLDNQNMVITKARQNKWETGNNLDVLTYTNPSYPNLDHQRSVLFINKKYFLVIDRAIGEATGNLGVHWQLKEDSNPVFDKTKNRVYTTYRDGNNLMIQSLNADRTSLNEEEGKVSYVYNKELKRPAFVFEKPKKNAGTQNFVSIVYPYDGQKAPEISIRENKGNDFEKGKLNLTLTINGKQQLVLVP
For B1, the “colonization of lungs by LLC cells” value [1] was “inhibited the LLC cells to colonize in the lungs”, the “ability of treated B16BL6 cells to metastasize to the lungs compared to PBS treated cells” value [2] was “significantly less able to metastasize to the lungs” and the “ability of treated B16BL6 cells to grow in mice compared to untreated cells” value [3] was “no effect”. For the same molecule, the “Erk-1, 2 activation upon FGF2 stimulation” value [4] was “decreased Erk-1, 2 activation”, the “FAK activation in tumor” value [5] was “inhibited FAK activation” and the “activation of Akt in tumor” value [6] was “no change in activation of Akt”.
